Values quoted from earlier work, collected in article PMC5218898.

What was measured:
RstB (Escherichia coli) = RstB (Escherichia coli) (UniProt P18392)
EnvZ (Escherichia coli) = EnvZ (Escherichia coli) (UniProt P0AEJ4)

Substance	Kd (RstB (Escherichia coli)) [nM]	Kd (EnvZ (Escherichia coli)) [nM]
RstB (from UniProt P18392)	300	–
EnvZ (from UniProt P0AEJ4)	–	300
